What all share (settings): remark: other sources report otherwise
The target in assay [1] is T1, endogenous 14-3-3ζ (YWHAZ) in A549 cells (human (endogenous in A549)), P63104.
T1 chain: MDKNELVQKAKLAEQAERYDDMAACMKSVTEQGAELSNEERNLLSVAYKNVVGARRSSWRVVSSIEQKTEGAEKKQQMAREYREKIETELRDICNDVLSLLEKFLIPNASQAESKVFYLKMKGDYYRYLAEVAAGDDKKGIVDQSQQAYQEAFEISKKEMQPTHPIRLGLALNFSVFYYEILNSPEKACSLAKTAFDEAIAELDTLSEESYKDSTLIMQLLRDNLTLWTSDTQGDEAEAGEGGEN
The assay can be described thus: native gel or EMSA.

Assay [2] deals with T1, endogenous 14-3-3ζ (YWHAZ) in A549 …. Kind of assay: cross-linking.
The target in assay [3] is T2, purified recombinant 14-3-3ζ, P63104.
T2 chain: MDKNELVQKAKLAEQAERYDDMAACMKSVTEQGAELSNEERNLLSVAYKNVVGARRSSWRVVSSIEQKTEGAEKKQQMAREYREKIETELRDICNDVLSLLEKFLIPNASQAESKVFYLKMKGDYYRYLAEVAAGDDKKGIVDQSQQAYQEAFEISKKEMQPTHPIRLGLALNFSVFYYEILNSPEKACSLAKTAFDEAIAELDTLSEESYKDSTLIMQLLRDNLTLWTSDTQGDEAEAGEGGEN
The assay can be described thus: cross-linking.

B1: endogenous 14-3-3ζ (YWHAZ) in A549 cells, P63104 1-245 (natural protein)
chain: MDKNELVQKAKLAEQAERYDDMAACMKSVTEQGAELSNEERNLLSVAYKNVVGARRSSWRVVSSIEQKTEGAEKKQQMAREYREKIETELRDICNDVLSLLEKFLIPNASQAESKVFYLKMKGDYYRYLAEVAAGDDKKGIVDQSQQAYQEAFEISKKEMQPTHPIRLGLALNFSVFYYEILNSPEKACSLAKTAFDEAIAELDTLSEESYKDSTLIMQLLRDNLTLWTSDTQGDEAEAGEGGEN
For B1, the stoichiometry N in assay [1] and in assay [2] was 2 throughout.

B2: purified recombinant 14-3-3ζ, P63104 1-245 (natural protein)
chain: MDKNELVQKAKLAEQAERYDDMAACMKSVTEQGAELSNEERNLLSVAYKNVVGARRSSWRVVSSIEQKTEGAEKKQQMAREYREKIETELRDICNDVLSLLEKFLIPNASQAESKVFYLKMKGDYYRYLAEVAAGDDKKGIVDQSQQAYQEAFEISKKEMQPTHPIRLGLALNFSVFYYEILNSPEKACSLAKTAFDEAIAELDTLSEESYKDSTLIMQLLRDNLTLWTSDTQGDEAEAGEGGEN
For the molecule B2, in assay [3], the stoichiometry N (as a rule, a count of units in the complex or per binding partner) was 2.

The values are drawn from PMC12381585.
